Assay results as given in US20180188270A1, “DIAGNOSTIC TEST FOR ALZHEIMER'S DISEASE BASED ON IDENTIFICATION OF A PROTEOLYTIC PATHWAY” (Health Research, Inc., priority 2015, published 2018).

Columns and labels:
[1] = tested on: ERBB1 and ERBB2; experiment: Tissue levels and phosphorylation of ERBB1 and ERBB2 by IB; type: in vivo, mouse; settings: CCl4 0.5 g/kg or hPEPD 4 mg/kg i.p., 24 h
Description: Animal studies. All animal studies were performed in accordance with protocols approved by the Institutional Animal Care and Use Committee at Roswell Park Cancer Institute. Male mice at 7-8 weeks of age were used, including wild type (WT) mice (C57BL/6), and mice deficient in FXII (C57BL/6-FXII^−/−) or FVII (C57BL/6-FVII^tTA/tTA). WT C57BL/6 mice were purchased from Taconic. C57BL/6-FXII^−/− mice and C57BL/6-FVII^tTA/tTA mice were bred in our own facility and genotyped. The breeders were kindly provided by Dr. Francis J. Castellino at University of Notre Dame. […] CCl4 was dissolved in corn oil, whereas all other substances were dissolved in PBS. The vehicle or the test substance was given to mice in 0.1 ml volume per 20 g body weight. Blood was collected from the mice at specific times by cardiac puncture at the time of sacrifice by carbon dioxide, and heart, liver and kidney were also collected from some of the mice. Blood was collected into K3 EDTA-containing tubes (Multivette 600 from Sarstedt), unless specified otherwise. All blood samples were promptly centrifuged to obtain plasma samples.
IB. […] Protein concentrations in all samples were measured by the BCA assay kit. […] The proteins were transferred to polyvinylidene fluoride membrane, probed with specific antibodies and detected using the ECL Plus Kit (Amersham) or the SuperSignal West Pico Kit (Thermo Scientific).

[2] = molecular target: T1, FVIIa (Homo sapiens, UniProt P08709); experiment: In vitro degradation by FVIIa with or without TF; type: biochemical; settings: for hPEPD remaining (enzymatic activity): 60 min
T1 construct: purchased Haematologic Technologies HCVIIA-0031 (FVIIa); RTF-0300 (TF)
Description: (§1) To determine whether a blood coagulation factor degrades hPEPD, hPEPD at 90 nM or lower concentrations (10 or 40 nM) was incubated with solvent, 100 nM FIIa, 100 nM FXa, 10 nM FVIIa with or without 10 nM TF, or 10 nM FVII with or without 10 nM TF and/or 100 nM FIIa in PBS in a total volume of 100 μl containing 5 mM CaCl2 for desired times at RT. […] To compare the hPEPD-degrading activities of different plasma samples, 9.2 pmol of hPEPD was incubated with 100 μl of plasma from WT mice or FVII^tTA/tTA mice at RT, with or without FIIa or FXa (10 pmol), and to maximize detection of any activity, all incubations lasted for 24 h. […] To measure remaining hPEPD, the incubated samples were cleared of potential fibrin clots by centrifugation and then analyzed by SDS-PAGE and silver staining (using the LC 6070 kit from Invitrogen), IB or measurement of hPEPD enzymatic activity. hPEPD enzymatic activity was measured using glycyl-proline as a substrate (as described in Zbucka et al., Folia Histochem Cytobiol 2007; 45 Suppl 1: S181-185). The precipitates from each incubated sample were washed with PBS twice and then resuspended in 2.5% SDS (20 μper sample); each solution was mixed with 10 μl loading dye and analyzed for hPEPD by IB, using pure hPEPD as a standard and factor FXIIIa as a binding control, respectively.
All samples after incubation were resolved by SDS-PAGE and stained by silver.
Each value is mean±SD (n=3).

[3] = molecular target: T2, FVII (Homo sapiens, UniProt P08709); experiment: hPEPD degradation by FVII with or without TF and/or FIIa; type: biochemical; settings: 24 h
T2 construct: purchased Haematologic Technologies HCVII-0030
T2 sequence (P08709 61-466): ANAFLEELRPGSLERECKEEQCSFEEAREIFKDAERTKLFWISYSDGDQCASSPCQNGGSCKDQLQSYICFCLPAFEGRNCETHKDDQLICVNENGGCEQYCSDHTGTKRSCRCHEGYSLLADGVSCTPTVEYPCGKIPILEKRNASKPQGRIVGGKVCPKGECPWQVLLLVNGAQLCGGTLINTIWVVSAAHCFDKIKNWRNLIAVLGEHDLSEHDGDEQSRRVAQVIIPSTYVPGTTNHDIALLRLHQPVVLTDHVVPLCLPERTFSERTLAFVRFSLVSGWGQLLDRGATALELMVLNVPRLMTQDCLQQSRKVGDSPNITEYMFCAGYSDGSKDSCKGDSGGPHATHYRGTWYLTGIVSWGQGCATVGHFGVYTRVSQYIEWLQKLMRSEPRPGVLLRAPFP
Description: as §1, with “Measurement of in vitro degradation of hPEPD, mSRC and hAβ1-42. To determine” for “To determine”

T1 sequence (P13726 33-295 partner, one chain of several): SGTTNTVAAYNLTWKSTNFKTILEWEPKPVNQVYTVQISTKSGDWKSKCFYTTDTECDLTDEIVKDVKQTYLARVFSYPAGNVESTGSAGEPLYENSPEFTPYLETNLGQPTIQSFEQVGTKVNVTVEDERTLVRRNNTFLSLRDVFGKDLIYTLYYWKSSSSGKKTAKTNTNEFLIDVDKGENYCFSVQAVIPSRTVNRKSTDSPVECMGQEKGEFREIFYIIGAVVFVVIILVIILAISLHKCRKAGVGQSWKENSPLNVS

B1: hPEPD: recombinant human prolidase (PEPD), 6xHis tagged to the carboxy terminus (protein, UniProt P12955 2-493, looked up)
Xaa-Pro dipeptidase: AAATGPSFWLGNETLKVPLALFALNRQRLCERLRKNPAVQAGSIVVLQGGEETQRYCTDTGVLFRQESFFHWAFGVTEPGCYGVIDVDTGKSTLFVPRLPASHATWMGKIHSKEHFKEKYAVDDVQYVDEIASVLTSQKPSVLLTLRGVNTDSGSVCREASFDGISKFEVNNTILHPEIVECRVFKTDMELEVLRYTNKISSEAHREVMKAVKVGMKEYELESLFEHYCYSRGGMRHSSYTCICGSGENSAVLHYGHAGAPNDRTIQNGDMCLFDMGGEYYCFASDITCSFPANGKFTADQKAVYEAVLRSSRAVMGAMKPGVWWPDMHRLADRIHLEELAHMGILSGSVDAMVQAHLGAVFMPHGLGHFLGIDVHDVGGYPEGVERIDEPGLRSLRTARHLQPGMVLTVEPGIYFIDHLLDEALADPARASFLNREVLQRFRGFGGVRIEEDVVVTDSGIELLTCVPRTVEEIEACMAGCDKAFTPFSGPK
modifications: C-terminal 6xHis tag
notes: recombinant human prolidase (PEPD), 6xHis tagged to the carboxy terminus
changes in ERBB1/ERBB2 tyrosine phosphorylation and receptor depletion in heart, kidney and liver, WT mice compared to FXII−/− mice [1]: reduced changes in receptor tyrosine phosphorylation
proteolysis/fragmentation by FVIIa plus TF ([2]; FVIIa 10 nM plus TF 10 nM, CaCl2-containing PBS, RT): caused rapid and extensive hPEPD proteolysis
degradation by FVIIa in the absence of TF ([2]; FVIIa 10 nM, no TF): degraded hPEPD
hPEPD remaining (enzymatic activity) ([2]; hPEPD 10 nM, FVIIa 10 nM plus TF 10 nM, RT): 35.9%
hPEPD remaining (enzymatic activity) ([2]; hPEPD 40 nM, FVIIa 10 nM plus TF 10 nM, RT): 46.3%
hPEPD remaining (enzymatic activity) ([2]; hPEPD 90 nM, FVIIa 10 nM plus TF 10 nM, RT): 52.4%
hPEPD degradation by FVII with or without TF after adding FIIa ([3]; FIIa 100 nM): caused marked hPEPD degradation
proteolysis of hPEPD by FVII with or without TF ([3]; FVII 10 nM, TF 10 nM): showed no proteolytic activity towards hPEPD
